Measurements: patent publication US20160222130A1

Target: human Tie2 (on human Tie2-expressing cells) (human) (UniProt Q02763)
Test: cell-based or functional assay

Chain of human Tie2 (on human Tie2-expressing cells) (human) (Q02763 23-1124): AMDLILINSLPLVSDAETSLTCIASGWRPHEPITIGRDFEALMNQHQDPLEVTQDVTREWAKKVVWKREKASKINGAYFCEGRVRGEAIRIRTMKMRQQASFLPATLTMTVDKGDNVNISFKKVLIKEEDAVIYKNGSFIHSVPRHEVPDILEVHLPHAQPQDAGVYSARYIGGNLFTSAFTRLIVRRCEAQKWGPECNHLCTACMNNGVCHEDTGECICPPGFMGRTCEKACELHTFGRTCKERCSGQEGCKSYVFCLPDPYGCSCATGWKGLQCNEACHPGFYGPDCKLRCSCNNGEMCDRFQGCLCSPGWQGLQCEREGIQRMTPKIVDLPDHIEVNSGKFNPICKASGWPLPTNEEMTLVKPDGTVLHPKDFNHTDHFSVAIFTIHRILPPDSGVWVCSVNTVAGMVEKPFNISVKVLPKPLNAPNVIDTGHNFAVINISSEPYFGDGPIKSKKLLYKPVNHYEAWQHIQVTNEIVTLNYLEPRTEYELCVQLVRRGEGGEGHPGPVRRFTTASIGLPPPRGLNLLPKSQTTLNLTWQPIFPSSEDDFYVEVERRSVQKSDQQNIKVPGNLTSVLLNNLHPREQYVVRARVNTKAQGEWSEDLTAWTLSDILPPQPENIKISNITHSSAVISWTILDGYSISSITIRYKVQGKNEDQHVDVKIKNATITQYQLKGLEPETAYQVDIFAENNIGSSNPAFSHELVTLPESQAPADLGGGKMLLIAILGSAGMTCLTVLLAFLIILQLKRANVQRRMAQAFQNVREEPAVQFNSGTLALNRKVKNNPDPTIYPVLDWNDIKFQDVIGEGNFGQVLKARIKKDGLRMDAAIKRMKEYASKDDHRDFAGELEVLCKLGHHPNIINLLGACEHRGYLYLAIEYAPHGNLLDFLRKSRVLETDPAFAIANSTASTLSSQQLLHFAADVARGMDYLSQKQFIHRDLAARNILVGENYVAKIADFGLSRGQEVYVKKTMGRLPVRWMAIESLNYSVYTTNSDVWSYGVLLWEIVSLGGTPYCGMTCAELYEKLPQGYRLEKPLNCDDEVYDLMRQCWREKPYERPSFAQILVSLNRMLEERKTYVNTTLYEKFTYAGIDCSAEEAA

EC50 value of anti-apoptotic activity, human Tie2-expressing BaF3 cell: 0.0393 µg/mL | Maximum activity of anti-apoptotic activities (Ang-1 = 100%): 67%
Substance: Ang-2 (R&D, 623-AN-025) (from UniProt O15123 19-496) (ligand)
